What was measured:
[1] = molecular target: R. centenaria CheW (Rc-CheW) containing an N-terminal his-tag (R. centenaria) (UniProt P72251); experiment: pull-down; as a1, residual ATP hydrolyzed by adding apyrase
[2] = molecular target: R. centenaria CheW (Rc-CheW) containing an N-terminal his-tag (R. centenaria) (UniProt P72251); experiment: pull-down; as a1, with increasing amounts of added ATP (0-20 mM)
[3] = molecular target: R. centenaria CheW (Rc-CheW) containing an N-terminal his-tag (R. centenaria) (UniProt P72251); experiment: pull-down; 50 μg purified his-Rc-CheW (bait) mixed with one in vitro translated [35S]-labelled prey, overnight at 37°C, bound to Cu(II)-Sepharose in 20 mM sodium phosphate pH 7.7, 200 mM NaCl, 50 mM imidazole; eluted with 500 mM imidazole; phosphorimaging; no ATP added (low ATP level, 2 mM, from the translation reaction)
[4] = molecular target: Pph with a C-terminal strep-tag and an N-terminal his-tag (His10-Ppr(Δ1-601)-StrepTag II, pET16b-Pph) (R. centenaria); experiment: resonant mirror spectroscopy (Iasys biosensor cuvette); purified Pph (50 μg/ml) immobilised on an aminosilane cuvette (via strep-tag to streptactin by the results); increasing concentrations of purified Rc-CheW, 30 minutes each; fractional saturation, Scatchard plot
[5] = molecular target: Pph with a C-terminal strep-tag and an N-terminal his-tag (His10-Ppr(Δ1-601)-StrepTag II, pET16b-Pph) (R. centenaria); experiment: SEC; crude soluble extract of E. coli C41 (DE3) with pET16b-Pph on Sephadex G-200, non-reducing conditions, 20 mM Tris pH 7.4, 40 mM NaCl, 20% glycerol; fractions by SDS-PAGE and Western blot against strep tag II

Chain of UniProt P72251 (P72251 entry or part of it): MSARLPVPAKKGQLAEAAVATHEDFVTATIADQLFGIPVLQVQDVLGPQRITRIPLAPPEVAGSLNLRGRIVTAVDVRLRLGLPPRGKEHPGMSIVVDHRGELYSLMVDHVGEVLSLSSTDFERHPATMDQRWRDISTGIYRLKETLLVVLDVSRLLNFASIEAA

**Q.** Which results are given for “histidine kinase domain Pph of Ppr, in vitro translated and [35S]-methionine labelled (from pSK4) (domain or fragment)”?
**A.** bound Pph with apyrase (% of input) [1]: 5%; Rc-CheW-bound Pph with added ATP (% of input) [2]: 24%; co-elution rate (% of input Pph) [3]: 13%

**Q.** For “R. centenaria CheW (Rc-CheW) containing an N-terminal his-tag (from UniProt P72251 1-165) (natural protein)”, which Kd [4] is on record?
**A.** 130 nM

**Q.** How did the stoichiometry N [5] turn out when “Pph with a C-terminal strep-tag and an N-terminal his-tag (His10-Ppr(Δ1-601)-StrepTag II, pET16b-Pph) (domain or fragment)” was run?
**A.** 2

Reference: publication PMC2993699
